# B1: Abl interactor 2 (Homo sapiens), Q9NYB9 (parent)
# chain: MAELQMLLEEEIPGGRRALFDSYTNLERVADYCENNYIQSADKQRALEETKAYTTQSLASVAYLINTLANNVLQMLDIQASQLRRMESSINHISQTVDIHKEKVARREIGILTTNKNTSRTHKIIAPANLERPVRYIRKPIDYTILDDIGHGVKWLLRFKVSTQNMKMGGLPRTTPPTQKPPSPPMSGKGTLGRHSPYRTLEPVRPPVVPNDYVPSPTRNMAPSQQSPVRTASVNQRNRTYSSSGSSGGSHPSSRSSSRENSGSGSVGVPIAVPTPSPPSVFPAPAGSAGTPPLPATSASAPAPLVPATVPSSTAPNAAAGGAPNLADGFTSPTPPVVSSTPPTGHPVQFYSMNRPASRHTPPTIGGSLPYRRPPSITSQTSLQNQMNGGPFYSQNPVSDTPPPPPPVEEPVFDESPPPPPPPEDYEEEEAAVVEYSDPYAEEDPPWAPRSYLEKVVAIYDYTKDKEDELSFQEGAIIYVIKKNDDGWYEGVMNGVTGLFPGNYVESIMHYSE
# partner: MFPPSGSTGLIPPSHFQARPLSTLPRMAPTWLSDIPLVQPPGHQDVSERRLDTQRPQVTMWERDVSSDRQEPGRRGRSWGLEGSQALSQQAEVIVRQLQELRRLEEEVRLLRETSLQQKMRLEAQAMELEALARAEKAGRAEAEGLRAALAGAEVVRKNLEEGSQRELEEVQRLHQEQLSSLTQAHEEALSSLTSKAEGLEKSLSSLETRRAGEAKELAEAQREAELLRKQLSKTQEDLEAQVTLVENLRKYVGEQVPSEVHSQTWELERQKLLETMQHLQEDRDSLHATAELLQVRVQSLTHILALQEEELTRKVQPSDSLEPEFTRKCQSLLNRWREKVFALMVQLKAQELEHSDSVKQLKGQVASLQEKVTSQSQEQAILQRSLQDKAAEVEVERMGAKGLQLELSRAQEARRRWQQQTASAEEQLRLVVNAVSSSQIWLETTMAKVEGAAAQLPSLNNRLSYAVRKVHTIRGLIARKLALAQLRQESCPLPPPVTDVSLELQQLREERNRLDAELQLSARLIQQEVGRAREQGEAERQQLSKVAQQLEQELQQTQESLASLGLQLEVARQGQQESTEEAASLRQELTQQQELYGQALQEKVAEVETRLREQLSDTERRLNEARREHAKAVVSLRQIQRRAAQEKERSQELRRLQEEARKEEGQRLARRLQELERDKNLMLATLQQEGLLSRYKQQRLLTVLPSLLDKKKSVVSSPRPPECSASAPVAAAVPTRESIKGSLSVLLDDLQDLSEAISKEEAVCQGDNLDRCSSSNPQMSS
# B2: Zinc finger CCCH domain-containing protein 11A (Homo sapiens), O75152 (parent)
# chain: MPNQGEDCYFFFYSTCTKGDSCPFRHCEAAIGNETVCTLWQEGRCFRQVCRFRHMEIDKKRSEIPCYWENQPTGCQKLNCAFHHNRGRYVDGLFLPPSKTVLPTVPESPEEEVKASQLSVQQNKLSVQSNPSPQLRSVMKVESSENVPSPTHPPVVINAADDDEDDDDQFSEEGDETKTPTLQPTPEVHNGLRVTSVRKPAVNIKQGECLNFGIKTLEEIKSKKMKEKSKKQGEGSSGVSSLLLHPEPVPGPEKENVRTVVRTVTLSTKQGEEPLVRLSLTERLGKRKFSAGGDSDPPLKRSLAQRLGKKVEAPETNIDKTPKKAQVSKSLKERLGMSADPDNEDATDKVNKVGEIHVKTLEEILLERASQKRGELQTKLKTEGPSKTDDSTSGARSSSTIRIKTFSEVLAEKKHRQQEAERQKSKKDTTCIKLKIDSEIKKTVVLPPIVASRGQSEEPAGKTKSMQEVHIKTLEEIKLEKALRVQQSSESSTSSPSQHEATPGARRLLRITKRTGMKEEKNLQEGNEVDSQSSIRTEAKEASGETTGVDITKIQVKRCETMREKHMQKQQEREKSVLTPLRGDVASCNTQVAEKPVLTAVPGITRHLTKRLPTKSSQKVEVETSGIGDSLLNVKCAAQTLEKRGKAKPKVNVKPSVVKVVSSPKLAPKRKAVEMHAAVIAAVKPLSSSSVLQEPPAKKAAVAVVPLVSEDKSVTVPEAENPRDSLVLPPTQSSSDSSPPEVSGPSSSQMSMKTRRLSSASTGKPPLSVEDDFEKLIWEISGGKLEAEIDLDPGKDEDDLLLELSEMIDS
# B3: Abl interactor 2 (Homo sapiens), Q9NYB9 (parent)
# chain: B1 chain
# partner: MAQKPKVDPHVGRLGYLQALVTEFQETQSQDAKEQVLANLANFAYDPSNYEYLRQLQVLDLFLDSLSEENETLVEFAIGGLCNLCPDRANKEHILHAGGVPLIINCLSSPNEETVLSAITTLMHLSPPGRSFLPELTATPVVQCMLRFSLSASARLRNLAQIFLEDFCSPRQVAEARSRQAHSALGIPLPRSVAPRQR
# B4: Abl interactor 2 (Homo sapiens), Q9NYB9 (parent)
# chain: B1 chain
# partner: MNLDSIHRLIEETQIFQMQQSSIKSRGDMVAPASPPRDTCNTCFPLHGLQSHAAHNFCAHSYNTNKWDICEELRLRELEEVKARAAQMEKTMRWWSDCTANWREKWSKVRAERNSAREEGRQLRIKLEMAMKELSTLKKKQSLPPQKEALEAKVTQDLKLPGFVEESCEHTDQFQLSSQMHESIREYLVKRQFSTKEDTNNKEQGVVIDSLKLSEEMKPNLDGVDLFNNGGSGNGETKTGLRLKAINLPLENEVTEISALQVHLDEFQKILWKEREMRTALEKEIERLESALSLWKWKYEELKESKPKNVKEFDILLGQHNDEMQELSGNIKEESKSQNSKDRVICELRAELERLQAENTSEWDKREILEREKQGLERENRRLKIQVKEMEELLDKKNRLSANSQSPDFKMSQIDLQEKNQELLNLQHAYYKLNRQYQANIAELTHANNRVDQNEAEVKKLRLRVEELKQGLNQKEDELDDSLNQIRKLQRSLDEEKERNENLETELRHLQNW
# Variants of: B1
# Conditions: with cchcr_human CCHCR1, Q8TD31
row,Variant,effect of a mutation on the interaction
1,R373C,with no effect

# Variants of: B2
# Conditions: with mlh1_human MLH1, P40692
# Sequence of mlh1_human MLH1, P40692 (P40692 whole entry): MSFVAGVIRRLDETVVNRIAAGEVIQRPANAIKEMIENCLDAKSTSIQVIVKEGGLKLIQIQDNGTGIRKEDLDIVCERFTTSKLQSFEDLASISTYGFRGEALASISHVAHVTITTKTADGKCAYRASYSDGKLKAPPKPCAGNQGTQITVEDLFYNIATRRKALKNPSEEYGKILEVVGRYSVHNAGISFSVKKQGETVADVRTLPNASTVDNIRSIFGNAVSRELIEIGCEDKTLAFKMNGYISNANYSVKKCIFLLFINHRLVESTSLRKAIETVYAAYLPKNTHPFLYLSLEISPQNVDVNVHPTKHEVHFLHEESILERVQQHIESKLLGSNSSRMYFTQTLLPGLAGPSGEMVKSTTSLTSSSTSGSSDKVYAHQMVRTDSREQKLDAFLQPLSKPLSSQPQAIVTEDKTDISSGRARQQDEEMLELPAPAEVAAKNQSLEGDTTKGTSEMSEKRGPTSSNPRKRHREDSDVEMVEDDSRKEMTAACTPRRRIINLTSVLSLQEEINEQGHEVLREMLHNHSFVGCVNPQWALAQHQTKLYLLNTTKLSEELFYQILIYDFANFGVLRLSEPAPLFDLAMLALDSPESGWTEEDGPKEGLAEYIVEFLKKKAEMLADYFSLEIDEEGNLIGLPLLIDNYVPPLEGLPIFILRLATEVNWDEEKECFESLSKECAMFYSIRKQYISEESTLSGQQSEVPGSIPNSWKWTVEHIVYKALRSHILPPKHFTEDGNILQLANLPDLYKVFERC
row,effect of a mutation on the interaction,Variant
1,with no effect,E408D

# Variants of: B3
# Conditions: with armc7_human ARMC7, Q9H6L4
row,effect of a mutation on the interaction,Variant
1,with no effect,E202K

# Variants of: B4
# Conditions: with CCDC102B
row,effect of a mutation on the interaction,Variant
1,with no effect,R373C

# Variants of: B4
# Conditions: with CCDC102B
# Remark: another data set of the same source
row,effect of a mutation on the interaction,Variant
1,with no effect,E202K
